This sample holds only a part of the variants without activity.
B1: TPR 5TU (parent)
chain: GGAUCUUCUCGAUCUAACAAAAAAGACAAAUCUGCCACAAAGCUUGAGAGCAUCUUCGGAUGCAGAGGCGGCAGCCUUCGGUGGCGCGAUAGCGCCAACGUUCUCAACUAUGACACGCAAAACGCGUGCUCCGUUGAAUGGAGUUUAUCAUG

Variants of: B1
Assay: polymerase ribozyme fitness, log enrichment relative to wild type (log ratio); higher = more active; in vitro selection for triplet polymerase activity
In short: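 Mutant libraries for each subunit of a heterodimeric triplet polymerase ribozyme were made by PCR and then transcribed. Each library underwent one round of in vitro selection in triplicate: annealing with a biotinylated primer, the partner subunit and triplets, frozen incubation at −7 °C, gel excision of extended constructs, streptavidin-bead capture and RT-PCR. Input and output libraries were Illumina-sequenced, and only genotypes with ≥10 input reads and ≥1 read per output were kept. Fitness is the logarithm, base 2, of genotype enrichment over wild-type enrichment, computed from inverse-variance-weighted replicate averages.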

Question: Which “polymerase ribozyme fitness (log ratio)” value does the source give for A39C C57G A89U A97G here?
Answer: The value was -3.41.

Question: Which “polymerase ribozyme fitness (log ratio)” value does the source give for C38A G58A A60G C93U C95A C125G here?
Answer: Its value is -3.67.

Question: With A39C C93U as the variant, how does the “polymerase ribozyme fitness (log ratio)” value read?
Answer: Its value is -3.4.

Question: Which “polymerase ribozyme fitness (log ratio)” value does the source give for A37U A40C G68C G86U C95U G136A A137C here?
Answer: The value was no more than -4.2.

Question: For C38A U56A A137G, which “polymerase ribozyme fitness (log ratio)” value is on record?
Answer: The value was -2.08.

Question: Which “polymerase ribozyme fitness (log ratio)” value does the source give for A39C G94A here?
Answer: Its value is -2.88.

Question: Which “polymerase ribozyme fitness (log ratio)” value does the source give for A37C G58A C87A U101G G124C A150U here?
Answer: The value was no more than -4.2.

Question: For A39C A64G C75G C85U G124A, which “polymerase ribozyme fitness (log ratio)” value is on record?
Answer: Its value is no more than -4.2.

Question: With A39C C87U as the variant, how does the “polymerase ribozyme fitness (log ratio)” value read?
Answer: The value was -2.12.

Question: With C35U U77A C149A as the variant, how does the “polymerase ribozyme fitness (log ratio)” value read?
Answer: Its value is no more than -4.2.

Question: Which “polymerase ribozyme fitness (log ratio)” value does the source give for A37C A40C G58U G94A A97U G143C here?
Answer: Its value is no more than -4.2.

Question: For C36U A37G U53A C54U C87G, which “polymerase ribozyme fitness (log ratio)” value is on record?
Answer: The value was no more than -4.2.

Question: For A39C C76G A137C, which “polymerase ribozyme fitness (log ratio)” value is on record?
Answer: Its value is no more than -4.2.

Question: With C38G G74C C87U as the variant, how does the “polymerase ribozyme fitness (log ratio)” value read?
Answer: Its value is no more than -4.2.

Question: With A37G C57G A97G as the variant, how does the “polymerase ribozyme fitness (log ratio)” value read?
Answer: Its value is -2.57.

Question: Which “polymerase ribozyme fitness (log ratio)” value does the source give for C36U A52U here?
Answer: Its value is -1.56.

Question: For A37C C43U G68U A73C C79G C95U U148G, which “polymerase ribozyme fitness (log ratio)” value is on record?
Answer: Its value is no more than -4.2.

Question: Which “polymerase ribozyme fitness (log ratio)” value does the source give for C35U U82C here?
Answer: The value was 0.243.

Question: With C38A C76G G92C as the variant, how does the “polymerase ribozyme fitness (log ratio)” value read?
Answer: Its value is no more than -4.2.

Question: Which “polymerase ribozyme fitness (log ratio)” value does the source give for A37C A41U G48U A73U C93G C99U G140A here?
Answer: Its value is no more than -4.2.

Question: For C36U G46A A64G G80C, which “polymerase ribozyme fitness (log ratio)” value is on record?
Answer: Its value is no more than -4.2.

Question: Which “polymerase ribozyme fitness (log ratio)” value does the source give for C38A C95A U135A here?
Answer: The value was -1.76.

Question: With A37G C85U G88C C95U as the variant, how does the “polymerase ribozyme fitness (log ratio)” value read?
Answer: Its value is no more than -4.2.

Question: With C36U G42C U53A G59A U78A C87U as the variant, how does the “polymerase ribozyme fitness (log ratio)” value read?
Answer: Its value is no more than -4.2.

Question: For C38U C85U U146G, which “polymerase ribozyme fitness (log ratio)” value is on record?
Answer: The value was -0.571.

Question: Which “polymerase ribozyme fitness (log ratio)” value does the source give for C36G C87U A106U here?
Answer: The value was no more than -4.2.

Question: With A37G C51U as the variant, how does the “polymerase ribozyme fitness (log ratio)” value read?
Answer: The value was -2.54.

Question: With A37C G70U C96G as the variant, how does the “polymerase ribozyme fitness (log ratio)” value read?
Answer: The value was no more than -4.2.

Question: With C36A U44A G62C C93U U135G U139C U144A as the variant, how does the “polymerase ribozyme fitness (log ratio)” value read?
Answer: The value was no more than -4.2.

Question: With A37C A39C C95U G133U as the variant, how does the “polymerase ribozyme fitness (log ratio)” value read?
Answer: Its value is no more than -4.2.

Question: Which “polymerase ribozyme fitness (log ratio)” value does the source give for A37C G86C here?
Answer: The value was -3.09.

Question: For C38G A41U C79U G92C C123A, which “polymerase ribozyme fitness (log ratio)” value is on record?
Answer: Its value is no more than -4.2.

Question: Which “polymerase ribozyme fitness (log ratio)” value does the source give for C38U A73G U101A here?
Answer: Its value is -0.277.

Question: With C38A C87U A107U as the variant, how does the “polymerase ribozyme fitness (log ratio)” value read?
Answer: Its value is -4.17.

Question: With C38G A49C C76G C93U C125A U135A G143C U144A as the variant, how does the “polymerase ribozyme fitness (log ratio)” value read?
Answer: The value was no more than -4.2.

Question: For C36A A97U U101C U139A, which “polymerase ribozyme fitness (log ratio)” value is on record?
Answer: Its value is no more than -4.2.

Question: For A39C G84A C85G U90G A91G U111A, which “polymerase ribozyme fitness (log ratio)” value is on record?
Answer: The value was no more than -4.2.

Question: Which “polymerase ribozyme fitness (log ratio)” value does the source give for A37U A113U C116U G136C here?
Answer: The value was no more than -4.2.

Question: Which “polymerase ribozyme fitness (log ratio)” value does the source give for A37C C38U U53A A91G here?
Answer: The value was -3.98.

Question: Which “polymerase ribozyme fitness (log ratio)” value does the source give for C38A U90A G92A C103G G117U A138G here?
Answer: Its value is no more than -4.2.

Question: For A39G A52U U56A C75U U78G U104A U144C, which “polymerase ribozyme fitness (log ratio)” value is on record?
Answer: Its value is no more than -4.2.

Question: For C38U A120U A142U, which “polymerase ribozyme fitness (log ratio)” value is on record?
Answer: The value was -0.329.

Question: For C36U U56G A60C U61G C79U C93U C99U G112C U144A A150C, which “polymerase ribozyme fitness (log ratio)” value is on record?
Answer: Its value is no more than -4.2.

Question: For C36A C96A, which “polymerase ribozyme fitness (log ratio)” value is on record?
Answer: The value was no more than -4.2.

Question: Which “polymerase ribozyme fitness (log ratio)” value does the source give for C38G C51U C95A C99G A106U C125A U134A here?
Answer: The value was no more than -4.2.

Question: For C38U G84U A91U, which “polymerase ribozyme fitness (log ratio)” value is on record?
Answer: The value was no more than -4.2.

Question: Which “polymerase ribozyme fitness (log ratio)” value does the source give for A37G U145G here?
Answer: Its value is -2.35.

Question: For A37U G94A U104G, which “polymerase ribozyme fitness (log ratio)” value is on record?
Answer: Its value is -2.92.

Question: For C36U C96U A142C, which “polymerase ribozyme fitness (log ratio)” value is on record?
Answer: Its value is -2.88.

Question: For A37C C38U G71A U109G C123G, which “polymerase ribozyme fitness (log ratio)” value is on record?
Answer: Its value is no more than -4.2.

Question: Which “polymerase ribozyme fitness (log ratio)” value does the source give for C38U C57G G58A C116A A138G here?
Answer: The value was no more than -4.2.

Question: With C38U G94A as the variant, how does the “polymerase ribozyme fitness (log ratio)” value read?
Answer: Its value is -0.383.

Question: Which “polymerase ribozyme fitness (log ratio)” value does the source give for A39C A40G A49C G80U G86U A106C A150C here?
Answer: The value was no more than -4.2.

Question: With A39C A49G as the variant, how does the “polymerase ribozyme fitness (log ratio)” value read?
Answer: The value was -3.48.

Question: Which “polymerase ribozyme fitness (log ratio)” value does the source give for C38G A49U U55A C87A G126A G143C here?
Answer: The value was no more than -4.2.

Question: Which “polymerase ribozyme fitness (log ratio)” value does the source give for A39C A40G G50C C75A C85G here?
Answer: Its value is no more than -4.2.

Question: Which “polymerase ribozyme fitness (log ratio)” value does the source give for C38U G59A A60C here?
Answer: Its value is -1.48.

Question: With A37G A47G U101C as the variant, how does the “polymerase ribozyme fitness (log ratio)” value read?
Answer: Its value is -2.53.

Question: For A37G C38G G83U C118A C123U, which “polymerase ribozyme fitness (log ratio)” value is on record?
Answer: Its value is -4.05.

Question: For C38U C85U A107U C125G A147C, which “polymerase ribozyme fitness (log ratio)” value is on record?
Answer: The value was no more than -4.2.

Question: Which “polymerase ribozyme fitness (log ratio)” value does the source give for A37C A41U C93U C118A here?
Answer: The value was -2.93.

Question: Which “polymerase ribozyme fitness (log ratio)” value does the source give for A37U C51U A97C here?
Answer: The value was -2.02.

Question: Which “polymerase ribozyme fitness (log ratio)” value does the source give for C38G G92C C95U here?
Answer: Its value is -1.62.

Question: With A37C G80A G86A as the variant, how does the “polymerase ribozyme fitness (log ratio)” value read?
Answer: The value was -2.42.

Question: For A37C A52G, which “polymerase ribozyme fitness (log ratio)” value is on record?
Answer: Its value is -0.00493.

Question: For A37G U56A A97G, which “polymerase ribozyme fitness (log ratio)” value is on record?
Answer: The value was -2.85.

Question: With A37G G48C A52C U56A C79A U104A U109A C116G C149G G152A as the variant, how does the “polymerase ribozyme fitness (log ratio)” value read?
Answer: The value was no more than -4.2.

Question: For C36U U55G C118G, which “polymerase ribozyme fitness (log ratio)” value is on record?
Answer: Its value is -1.72.

Question: With C38U A49C A66G A138U U144C as the variant, how does the “polymerase ribozyme fitness (log ratio)” value read?
Answer: Its value is no more than -4.2.

Question: With A37U C54A C96G as the variant, how does the “polymerase ribozyme fitness (log ratio)” value read?
Answer: The value was -3.53.

Question: With C38A G83U C96G U144A as the variant, how does the “polymerase ribozyme fitness (log ratio)” value read?
Answer: Its value is -0.619.

Question: Which “polymerase ribozyme fitness (log ratio)” value does the source give for C36U G81A C95G C96A C99U C149G here?
Answer: Its value is no more than -4.2.

Question: Which “polymerase ribozyme fitness (log ratio)” value does the source give for A37U A60U C75U C96A U111A here?
Answer: Its value is no more than -4.2.

Question: With C36A U77G G81C G92U A115U G136C as the variant, how does the “polymerase ribozyme fitness (log ratio)” value read?
Answer: The value was no more than -4.2.

Question: With C38U U53A U61A as the variant, how does the “polymerase ribozyme fitness (log ratio)” value read?
Answer: The value was -1.44.

Question: With C38U A73U C87U C96A A122G U145A as the variant, how does the “polymerase ribozyme fitness (log ratio)” value read?
Answer: Its value is -2.54.

Question: Which “polymerase ribozyme fitness (log ratio)” value does the source give for C36A C93G C125A here?
Answer: Its value is no more than -4.2.

Question: For C38U G62C G94U, which “polymerase ribozyme fitness (log ratio)” value is on record?
Answer: The value was -3.3.

Question: Which “polymerase ribozyme fitness (log ratio)” value does the source give for C38A U61A C96G here?
Answer: Its value is -2.38.

Question: For C36U C51G A107U G128A U139G, which “polymerase ribozyme fitness (log ratio)” value is on record?
Answer: Its value is no more than -4.2.

Question: Which “polymerase ribozyme fitness (log ratio)” value does the source give for C38G G86U C118U here?
Answer: The value was -2.

Question: For C38U C95A C103U G143A, which “polymerase ribozyme fitness (log ratio)” value is on record?
Answer: The value was -3.18.

Question: For A37C G70C C87A C125U, which “polymerase ribozyme fitness (log ratio)” value is on record?
Answer: Its value is no more than -4.2.

Reference: the RNAGym collection of RNA variant scans (doi:10.1073/pnas.2313332121)
